{"source": "paper doi:10.1101/771139", "about": "(bioRxiv, 2020)", "target": "the molecule itself", "assay": "[…]"}
{"protein": "Bacillus subtilis SepF (natural protein) MSMKNKLKNFFSMEDEEYEYEYIETERESHEEHEQKEKPAYNGNKPAGKQNVVSLQSVQKSSKVVLSEPRVYAEAQEIADHLKNRRAVVVNLQRIQHDQAKRIVDFLSGTVYAIGGDIQRIGSDIFLCTPDNVDVSGTISELISEDEHQRW", "values": [{"measurement": "binding result", "value": "binds"}]}
